Numbering of substitutions follows the chain as printed.
B1: 1.58a (VHH)
VHH: QVQLVESGGGLVQPGGSLRLSCAASGFTFDDYAMSWVRQAPGKGLEWVSGISWNGGSAGYADSVKDRFTISRDNAKNSLYLQMNSLRAEDTALYYCARDPHSSAWSYDAFDIWGQGTMVTVSS
B2: 1.79a (VHH)
VHH: EVQLVESGGGVVRPGGSLRLSCAASGFTFDDYAMSWVRQAPGKGLEWVSGITWNGGSTGYADSVKGRFTISRDNAKNSLYLQMNSLRAEDTALYYCVRDKYSYAWSYDDFDIWGQGTMVTVSS
B3: 1.95a (VHH)
VHH: B2 VHH with N54S, G66D, D109G
B4: 1.68a (VHH)
VHH: B2 VHH with M34E, D109G
B5: 1.94a (VHH)
VHH: B2 VHH with N54T, G66D, D109G
B6: 1.84a (VHH)
VHH: B2 VHH with M34N, G66D, D109G
B7: 1.98a (VHH)
VHH: B2 VHH with N54L, G66D, D109G
B8: 1.78a (VHH)
VHH: B2 VHH with D109V
B9: 1.66a (VHH)
VHH: B2 VHH with M34N, D109G
B10: 1.69a (VHH)
VHH: B2 VHH with M34W, D109G
B11: 1.92a (VHH)
VHH: B2 VHH with M34F, G66D, D109G
B12: 1.71a (VHH)
VHH: B2 VHH with M34L, D109G
B13: 1.85a (VHH)
VHH: B2 VHH with M34D, G66D, D109G
B14: 1.60a (VHH)
VHH: B1 VHH with L11V, Q13R, A58T, H101Y, S103G
B15: 1.73a (VHH)
VHH: B2 VHH with M34R, D109G
B16: 1.83a (VHH)
VHH: B2 VHH with M34T, G66D, D109G
B17: 1.102a (VHH)
VHH: B2 VHH with G66D, D109V
B18: 1.80a (VHH)
VHH: B2 VHH with G55K, G66D
B19: 1.93a (VHH)
VHH: B2 VHH with M34V, G66D, D109G
B20: 1.101a (VHH)
VHH: B2 VHH with N54R, G66D, D109G
B21: 1.76a (VHH)
VHH: B2 VHH with G55H, G66D, D109V
B22: 1.100a (VHH)
VHH: B2 VHH with N54K, G66D, D109G
B23: 1.91a (VHH)
VHH: B2 VHH with M34R, G66D, D109G
B24: 1.87a (VHH)
VHH: B2 VHH with M34L, G66D, D109G
B25: 1.82a (VHH)
VHH: B2 VHH with M34I, G66D, D109G
B26: 1.86a (VHH)
VHH: B2 VHH with M34S, G66D, D109G
B27: 1.59a (VHH)
VHH: B1 VHH with L11V, Q13R, A58K, H101Y, S103G
B28: 1.75a (VHH)
VHH: B2 VHH with G55Q, G66D
B29: 1.99a (VHH)
VHH: B2 VHH with D109G
B30: 1.72a (VHH)
VHH: B2 VHH with M34S, D109G
B31: 1.62a (VHH)
VHH: B2 VHH with G55A
notes: also called Humabody 1.62a
B32: 1.70a (VHH)
VHH: B2 VHH with M34V, D109G
B33: 1.65a (VHH)
VHH: B2 VHH with M34Q, D109G
B34: 1.63a (VHH)
VHH: B2 VHH with G55R
B35: 1.77a (VHH)
VHH: B2 VHH with G55A, G66D
B36: 1.89a (VHH)
VHH: B2 VHH with M34E, G66D, D109G
B37: 1.88a (VHH)
VHH: B2 VHH with M34G, G66D, D109G
B38: 1.96a (VHH)
VHH: B2 VHH with N54P, G66D, D109G
B39: 1.81a (VHH)
VHH: B2 VHH with G55R, G66D
B40: 1.61a (VHH)
VHH: B2 VHH with E1Q, D31N, G66D, V97A, D109T, W113R
B41: 1.97a (VHH)
VHH: B2 VHH with N54I, G66D, D109G
B42: 1.64a (VHH)
VHH: B2 VHH with M34F, D109G
B43: 1.67a (VHH)
VHH: B2 VHH with M34G, D109G
B44: 1.90a (VHH)
VHH: B2 VHH with M34W, G66D, D109G
B45: 1.74a (VHH)
VHH: B2 VHH with G55S, G66D
B46: 1.12b (VHH)
VHH: EVQLLESGGGVVKPGGSLRLSCAASGFTFSDYYMGWIRQAPGKGLEWISYISSSGSTIYYADSVKGRFTISRDNAKNSLYLQMNSLRAEDTAVYYCAREAPLRLGESPHDAFDIWGQGTMVTVSS
B47: 1.15b (VHH)
VHH: B46 VHH with E1Q, L5V, V11L, Y32N, Y33S, G35S, I48V, S85T, R98K
B48: 1.52a (VHH)
VHH: EVQLLESGGGVVRPGGSLRLSCAASGFTFDDYGMSWVRQPPGKGLEWVSGISRNGGSAGYSDSAKDRFTISRDNAKNSLYLQMNSLRADDTAMYYCAREKYSSGWSYDDFDIWGQGTMVTVSS
B49: 1.57a (VHH)
VHH: B48 VHH with E1Q, L5V, P40A, A58T, S61T, D62A, A64V
B50: 1.53a (VHH)
VHH: B48 VHH with E1Q, L5V, P40S
B51: 1.54a (VHH)
VHH: B48 VHH with E1Q, L5V
B52: 1.55a (VHH)
VHH: B48 VHH with L5V
B53: 1.56a (VHH)
VHH: QVQLVESGGGVVRLGGSLRLSCAASGFSFVDYGMSWVRQAPGQGLEWVSGISRNGGSTGYADSVKDRFTISRDNAKNTLYLQMNSLRAEDTALYYCARDPYSSGWSYDSFDIWGQGTMVTVSS
B54: 1.24b (VHH)
VHH: QVTLKESGGGLVKPGGSLRLSCAASGFTFSDYDMYWIRQAPGKGLEWVSYISRGGSVTYYADSVKGRFTISRDNAKNALYLQMNSLRAEDMAVYFCATEAPLRLGETPHAAFDIWGQGTMVTVSS

Each binder was assayed against T1, human PD-1 expressed on cells (CHO TREX human PD1 cell line, full-length human PD-1 sequence) (human, UniProt Q15116 21-288) (assay: worded summary of the screens).
T1 construct: Also used for human PD-1 on Jurkat reporter cells, on PathHunter cells and on PHA-stimulated human CD4+ T cells; also called CHO human PD1 cells; CHO human PD-1 cells
T1 sequence (Q15116 21-288): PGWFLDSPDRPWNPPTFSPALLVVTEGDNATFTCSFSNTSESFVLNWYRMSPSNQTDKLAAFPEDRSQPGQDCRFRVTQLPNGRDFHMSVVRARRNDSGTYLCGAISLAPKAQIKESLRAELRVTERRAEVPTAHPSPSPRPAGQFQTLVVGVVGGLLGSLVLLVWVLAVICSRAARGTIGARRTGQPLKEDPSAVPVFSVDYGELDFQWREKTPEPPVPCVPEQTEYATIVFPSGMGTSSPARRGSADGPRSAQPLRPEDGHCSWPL

binding result	Binder
binds	B1
binds	B2
binds	B3
binds	B4
binds	B5
binds	B6
binds	B7
binds	B8
binds	B9
binds	B10
binds	B11
binds	B12
binds	B13
binds	B14
binds	B15
binds	B16
binds	B17
binds	B18
binds	B19
binds	B20
binds	B21
binds	B22
binds	B23
binds	B24
binds	B25
binds	B26
binds	B27

binding result	Binder
binds	B28
binds	B29
binds	B30
binds	B31
binds	B32
binds	B33
binds	B34
binds	B35
binds	B36
binds	B37
binds	B38
binds	B39
binds	B40
binds	B41
binds	B42
binds	B43
binds	B44
binds	B45
binds	B46
binds	B47
binds	B48
binds	B49
binds	B50
binds	B51
binds	B52
binds	B53
binds	B54
